In assay [1] the target is mouse NKP46 (NCR1) protein, NP_034876.2 (mouse) (UniProt Q8C567). Briefly: flow cytometry, peripheral blood NK cells of NKP46 humanized heterozygous mouse (cells carry mouse and humanized NKP46).
For assay [2] the target is unchanged. Briefly: flow cytometry, spleen NK cells of C57BL/6 wild-type mouse. On the technique in general: Flow cytometry measures light scatter and fluorescence of single cells or particles in a stream.
Assay [3] has the same target. Description: flow cytometry, peripheral blood NK cells of C57BL/6 wild-type mouse.
Assay [4] deals with humanized NKP46 protein (engineered mouse NKP46 after humanization) (human/mouse chimera (human NKP46 amino acids 2-253 replacing mouse 2-253; rest mouse)). Briefly: flow cytometry, peripheral blood NK cells of NKP46 humanized homozygous mouse.
The target in assay [5] is mouse NKP46 (NCR1) protein, NP_034876.2 (mouse) (UniProt Q8C567). Briefly: flow cytometry, spleen NK cells of NKP46 humanized heterozygous mouse (cells carry mouse and humanized NKP46).
Assay [6] shares this target. Briefly: flow cytometry, spleen NK cells of C57BL/6 wild-type mouse. The source holds these as a separate data set.
Assay [7] deals with humanized NKP46 protein (engineered mouse NKP46 after humanization) (human/mouse chimera (human NKP46 amino acids 2-253 replacing mouse 2-253; rest mouse)). Briefly: flow cytometry, spleen NK cells of NKP46 humanized homozygous mouse.
Assay [8] concerns the target mouse NKP46 (NCR1) protein, NP_034876.2 (mouse) (UniProt Q8C567). Briefly: flow cytometry, peripheral blood NK cells of C57BL/6 wild-type mouse. The source holds these as a separate data set.
The target in assay [9] is humanized NKP46 protein (engineered mouse NKP46 after humanization) (human/mouse chimera (human NKP46 amino acids 2-253 replacing mouse 2-253; rest mouse)). Briefly: flow cytometry, peripheral blood NK cells of NKP46 humanized heterozygous mouse.
For assay [10] the target is unchanged. Description: flow cytometry, spleen NK cells of NKP46 humanized heterozygous mouse.

Sequence of humanized NKP46 protein (engineered mouse NKP46 after humanization) (human/mouse chimera (human NKP46 amino acids 2-253 replacing mouse 2-253; rest mouse)) (chain, as listed by the source mutant limits assumed): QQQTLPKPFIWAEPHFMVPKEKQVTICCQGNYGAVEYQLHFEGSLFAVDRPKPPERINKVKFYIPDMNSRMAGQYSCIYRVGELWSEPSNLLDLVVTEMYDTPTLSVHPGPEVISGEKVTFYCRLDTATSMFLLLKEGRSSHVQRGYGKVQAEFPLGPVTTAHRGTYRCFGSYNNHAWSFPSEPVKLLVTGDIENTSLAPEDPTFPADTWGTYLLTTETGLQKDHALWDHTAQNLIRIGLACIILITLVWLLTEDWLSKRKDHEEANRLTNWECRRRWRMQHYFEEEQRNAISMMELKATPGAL
Sequence of UniProt Q8C567 (Q8C567 17-325 R131Q): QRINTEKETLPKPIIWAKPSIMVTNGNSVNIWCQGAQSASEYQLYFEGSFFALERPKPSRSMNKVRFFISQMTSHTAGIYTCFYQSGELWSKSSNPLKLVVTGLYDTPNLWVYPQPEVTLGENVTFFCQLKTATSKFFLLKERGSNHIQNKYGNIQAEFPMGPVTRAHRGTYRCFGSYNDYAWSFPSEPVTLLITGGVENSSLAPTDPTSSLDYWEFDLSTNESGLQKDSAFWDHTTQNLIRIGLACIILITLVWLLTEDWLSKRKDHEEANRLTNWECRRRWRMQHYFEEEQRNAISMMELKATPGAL

Turning to “APC anti-mouse CD335 (NKP46) Antibody (BioLegend, Catalog number: 137607)”, the % mCD45+ mNK1.1+ mNKP46+ cells in [1] was 4.33%; in [2], 2.25%; in assay [3] it was 2.81%; in [4] it was 0.009%; in assay [5], 3.44%; in assay [6], 4.21%. Moreover, the % mCD45+ mNK1.1+ mNKP46+ cells in assay [7] was found to be 0.035%; in [8] it was 3.96%.

In the case of “PE anti-human CD335 (NKP46) Antibody (BioLegend, Catalog number: 331907)”, the % mCD45+ mNK1.1+ hNKP46+ cells in assay [2] turned out to be 0.11%; in [3], 0.034%; in assay [4], 3.55%; in assay [9], 4.95%; in assay [6], 0.14%; in assay [7], 2.79%. In addition, the % mCD45+ mNK1.1+ hNKP46+ cells in [10] amounted to 4.08%; in [8], 0.056%.
